Results taken from patent publication US20240261333A1, “NOVEL TARGETS FOR ENHANCING ANTI-TUMOR IMMUNITY” (THE BROAD INSTITUTE, INC., priority 2021, published 2024).

T1: B3GNT2 (Homo sapiens, UniProt Q9NY97)
T1 construct: The respective ORFs of candidate genes [CD274 (NM_014143), MCL1 (NM_021960), JUNB (NM_002229), and B3GNT2 (NM_006577)] were synthesized; expressed in transfected cells; host or cells: A375 melanoma cells (lentiviral ORF overexpression)
T1 sequence (Q9NY97 1-397): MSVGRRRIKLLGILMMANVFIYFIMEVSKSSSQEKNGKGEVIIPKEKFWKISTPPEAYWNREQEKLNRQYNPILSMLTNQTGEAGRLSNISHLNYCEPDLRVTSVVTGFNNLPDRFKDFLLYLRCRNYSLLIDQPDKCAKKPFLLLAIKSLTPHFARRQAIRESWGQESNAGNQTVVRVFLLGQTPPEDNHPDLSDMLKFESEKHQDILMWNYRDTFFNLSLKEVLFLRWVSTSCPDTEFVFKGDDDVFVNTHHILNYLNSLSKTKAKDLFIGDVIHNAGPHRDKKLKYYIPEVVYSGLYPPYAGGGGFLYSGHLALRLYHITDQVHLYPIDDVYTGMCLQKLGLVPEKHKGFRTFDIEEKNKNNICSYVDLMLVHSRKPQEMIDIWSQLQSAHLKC


Molecular target: T1, B3GNT2
Test: Co-IP of FLAG-tagged B3GNT2 followed by mass spectrometry
Type: cell-based
Parameters: C-term IgG / C-term flag: unit not given here
Settings: mass spectrometry count, unit not given; for C-term flag / N-term FLAG: Co-IP with FLAG antibody; for C-term flag / C-term IgG: C-terminally FLAG-tagged B3GNT2; for N-term FLAG / N-term IgG: N-terminally FLAG-tagged B3GNT2; for C-term IgG / N-term IgG: Co-IP with IgG control antibody
Method in brief: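 FLAG-tagged B3GNT2 immunoprecipitated from cell lysate (HEPES, 1% Triton X-100, 150 mM NaCl) with anti-FLAG versus […], overnight at 4° C, then captured on Protein A/G magnetic beads for 4 h. Two biological replicates per condition. Peptides fractionated and analyzed by nano-LC on an Orbitrap Elite in data-dependent mode.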

| Molecule | C-term flag | N-term FLAG | C-term IgG | N-term IgG |
| --- | --- | --- | --- | --- |
| ARF4 (protein) GLTISSLFSRLFGKKQMRILMVGLDAAGKTTILYKLKLGEIVTTIPTIGFNVETVEYKNICFTVWDVGGQDRIRPLWKHYFQNTQGLIFVVDSNDRERIQEVADELQKMLLVDELRDAVLLLFANKQDLPNAMAISEMTDKLGLQSLRNRTWYVQATCATQGTGLYEGLDWLSNELSKR | 4 | 4 | 0 | 0 |
| CSRP1 (protein) MPNWGGGKKCGVCQKTVYFAEEVQCEGNSFHKSCFLCMVCKKNLDSTTVAVHGEEIYCKSCYGKKYGPKGYGYGQGAGTLSTDKGESLGIKHEEAPGHRPTTNPNASKFAQKIGGSERCPRCSQAVYAAEKVIGAGKSWHKACFRCAKCGKGLESTTLADKDGEIYCKGCYAKNFGPKGFGFGQGAGALVHSE | 3 | 0 | 0 | 0 |
| PJA2 (protein) SQYTEKEPAAMDQESGKAVWPKPAGGYQTITGRRYGRRHAYVSFKPCMTRHERSLGRAGDDYEVLELDDVPKENSSGSSPLDQVDSSLPSEPIFEKSETEIPTCGSALNQTTESSQSFVAVHHSEEGRDTLGSSTNLHNHSEGEYIPGACSASSVQNGIALVHTDSYDPDGKHGEDNDHLQLSAEVVEGSRYQESLGNTVFELENREAEAYTGLSPPVPSFNCEVRDEFEELDSVPLVKSSAGDTEFVHQNSQEIQRSSQDEMVSTKQQNNTSQERQTEHSPEDAACGPGHICSEQNTNDREKNHGSSPEQVVRPKVRKLISSSQVDQETGFNRHEAKQRSVQRWREALEVEESGSDDLLIKCEEYDGEHDCMFLDPPYSRVITQRETENNQMTSESGATAGRQEVDNTFWNGCGDYYQLYDKDEDSSECSDGEWSASLPHRFSGTEKDQSSSDESWETLPGKDENEPELQSDSSGPEEENQELSLQEGEQTSLEEGEIPWLQYNEVNESSSDEGNEPANEFAQPAFMLDGNNNLEDDSSVSEDLDVDWSLFDGFADGLGVAEAISYVDPQFLTYMALEERLAQAMETALAHLESLAVDVEVANPPASKESIDGLPETLVLEDHTAIGQEQCCPICCSEYIKDDIATELPCHHFFHKPCVSIWLQKSGTCPVCRRHFPPAVIEASAAPSSEPDPDAPPSNDSIAEAP | 2 | 0 | 0 | 0 |
| CTHRC1 (protein) MWPPGRSITVKLREKTVSRKLEMNGPSAFQGLICGKYNGMCLQGPAGVPGRDGSPGANGIPGTPGIPGRDGFKGEKGECLRESFEESWTPNYKQCSWSSLNYGIDLGKIAECTFTKMRSNSALRVLFSGSLRLKCRNACCQRWYFTFNGAECSGPLPIEAIIYLDQGSPEMNSTINIHRTSSVEGLCEGIGAGLVDVAIWVGTCSDYPKGDASTGWNSVSRIIIEELPK | 2 | 0 | 0 | 0 |
| GANAB (protein) ITLAVDRSNFKTCEESSFCKRQRSIRPGLSPYRALLDSLQLGPDSLTVHLIHEVTKVLLVLELQGLQKNMTRFRIDELEPRRPRYRVPDVLVADPPIARLSVSGRDENSVELTMAEGPYKIILTARPFRLDLLEDRSLLLSVNARGLLEFEHQRAPRVSQGSKDPAEGDGAQPEETPRDGDKPEETQGKAEKDEPGAWEETFKTHSDSKPYGPMSVGLDFSLPGMEHVYGIPEHADNLRLKVTEGGEPYRLYNLDVFQYELYNPMALYGSVPVLLAHNPHRDLGIFWLNAAETWVDISSNTAGKTLFGKMMDYLQGSGETPQTDVRWMSETGIIDVFLLLGPSISDVFRQYASLTGTQALPPLFSLGYHQSRWNYRDEADVLEVDQGFDDHNLPCDVIWLDIEHADGKRYFTWDPSRFPQPRTMLERLASKRRKLVAIVDPHIKVDSGYRVHEELRNLGLYVKTRDGSDYEGWCWPGSAGYPDFTNPTMRAWWANMFSYDNYEGSAPNLFVWNDMNEPSVFNGPEVTMLKDAQHYGGWEHRDVHNIYGLYVHMATADGLRQRSGGMERPFVLARAFFAGSQRFGAVWTGDNTAEWDHLKISIPMCLSLGLVGLSFCGADVGGFFKNPEPELLVRWYQMGAYQPFFRAHAHLDTGRREPWLLPSQHNDIIRDALGQRYSLLPFWYTLLYQAHREGIPVMRPLWVQYPQDVTTFNIDDQYLLGDALLVHPVSDSGAHGVQVYLPGQGEVWYDIQSYQKHHGPQTLYLPVTLSSIPVFQRGGTIVPRWMRVRRSSECMKDDPITLFVALSPQGTAQGELFLDDGHTFNYQTRQEFLLRRFSFSGNTLVSSSADPEGHFETPIWIERVVIIGAGKPAAVVLQTKGSPESRLSFQHDPETSVLVLRKPGINVASDWSIHLR | 8 | 0 | 0 | 0 |

More lines, now with the values ahead:

| C-term flag | N-term FLAG | C-term IgG | N-term IgG | Molecule |
| --- | --- | --- | --- | --- |
| 2 | 0 | 0 | 0 | RRP12 (protein) MGRSGKLPSGVSAKLKRWKKGHSSDSNPAICRHRQAARSRFFSRPSGRSDLTVDAVKLHNELQSGSLRLGKSEAPETPMEEEAELVLTEKSSGTFLSGLSDCTNVTFSKVQRFWESNSAAHKEICAVLAAVTEVIRSQGGKETETEYFAALVLSCLATLLRKQDLEAWGYPVTLQVYHGLLSFTVHPKPKIRKAAQHGVCSVLKGSEFMFEKAPAHHPAAISTAKFCIQEIEKSGGSKEATTTLHMLTLLKDLLPCFPEGLVKSCSETLLRVMTLSHVLVTACAMQAFHSLFHARPGLSTLSAELNAQIITALYDYVPSENDLQPLLAWLKVMEKAHINLVRLQWDLGLGHLPRFFGTAVTCLLSPHSQVLTAATQSLKEILKECVAPHMADIGSVTSSASGPAQSVAKMFRAVEEGLTYKFHAAWSSVLQLLCVFFEACGRQAHPVMRKCLQSLCDLRLSPHFPHTAALDQAVGAAVTSMGPEVVLQAVPLEIDGSEETLDFPRSWLLPVIRDHVQETRLGFFTTYFLPLANTLKSKAMDLAQAGSTVESKIYDTLQWQMWTLLPGFCTRPTDVAISFKGLARTLGMAISERPDLRVTVCQALRTLITKGCQAEADRAEVSRFAKNFLPILFNLYGQPVAAGDTPAPRRAVLETIRTYLTITDTQLVNSLLEKASEKVLDPASSDFTRLSVLDLVVALAPCADEAAISKLYSTIRPYLESKAHGVQKKAYRVLEEVCASPQGPGALFVQSHLEDLKKTLLDSLRSTSSPAKRPRLKCLLHIVRKLSAEHKEFITALIPEVILCTKEVSVGARKNAFALLVEMGHAFLRFGSNQEEALQCYLVLIYPGLVGAVTMVSCSILALTHLLFEFKGLMGTSTVEQLLENVCLLLASRTRDVVKSALGFIKVAVTVMDVAHLAKHVQLVMEAIGKLSDDMRRHFRMKLRNLFTKFIRKFGFELVKRLLPEEYHRVLVNIRKAEARAKRHRALSQAAVEEEEEEEEEEEPAQGKGDSIEEILADSEDEEDNEEEERSRGKEQRKLARQRSRAWLKEGGGDEPLNFLDPKVAQRVLATQPGPGRGRKKDHGFKVSADGRLIIREEADGNKMEEEEGAKGEDEEMADPMEDVIIRNKKHQKLKHQKEAEEEELEIPPQYQAGGSGIHRPVAKKAMPGAEYKAKKAKGDVKKKGRPDPYAYIPLNRSKLNRRKKMKLQGQFKGLVKAARRGSQVGHKNRRKDRRP |
| 2 | 0 | 0 | 0 | STAU2 (protein) MANPKEKTAMCLVNELARFNRVQPQYKLLNERGPAHSKMFSVQLSLGEQTWESEGSSIKKAQQAVANKALTESTLPKPVQKPPKSNVNNNPGSITPTVELNGLAMKRGEPAIYRPLDPKPFPNYRANYNFRGMYNQRYHCPVPKIFYVQLTVGNNEFFGEGKTRQAARHNAAMKALQALQNEPIPERSPQNGESGKDVDDDKDANKSEISLVFEIALKRNMPVSFEVIKESGPPHMKSFVTRVSVGEFSAEGEGNSKKLSKKRAATTVLQELKKLPPLPVVEKPKLFFKKRPKTIVKAGPEYGQGMNPISRLAQIQQAKKEKEPDYVLLSERGMPRRREFVMQVKVGNEVATGTGPNKKIAKKNAAEAMLLQLGYKASTNLQDQLEKTGENKGWSGPKPGFPEPTNNTPKGILHLSPDVYQEMEASRHKVISGTTLGYLSPKDMNQPSSSFFSISPTSNSSATIARELLMNGTSSTAEAIGLKGSSPTPPCSPVQPSKQLEYLARIQGFQAALSALKQFSEQGLDPIDGAMNIEKGSLEKQAKHLREKADNNQAPPGSIAQDCKKSNSAV |
| 6 | 2 | 0 | 0 | STAU1 (protein) MKLGKKPMYKPVDPYSRMQSTYNYNMRGGAYPPRYFYPFPVPPLLYQVELSVGGQQFNGKGKTRQAAKHDAAAKALRILQNEPLPERLEVNGRESEEENLNKSEISQVFEIALKRNLPVNFESFPLKQVARESGPPHMKNFVTKVSVGEFVGEGEGKSKKISKKNAAIAVLEELKKLPPLPAVERVKPRIKKKTKPIVKPQTSPEYGQGINPISRLAQIQQAKKEKEPEYTLLTERGLPRRREFVMQVKVGNHTAEGTGTNKKVAKRNAAENMLEILGFKVPQAQPTKPALKSEEKTPIKKPGDGRKVTFFEPGSGDENGTSNKEDEFRMPYLSHQQLPAGILPMVPEVAQAVGVSQGHHTKDFTRAAPNPAKATVTAMIARELLYGGTSPTAETILKNNISSGHVPHGPLTRPSEQLDYLSRVQGFQVEYKDFPKNNKNEFVSLINCSSQPPLISHGIGKDVESCHDMAALNILKLLSELDQQSTEMPRTGNGPMSVCGRC |
